Data reported in patent US20150119554A1.
One block for each binder: values may come before it.

Columns and labels:
[1] = target: antigen of the ScFv (Example 1); experiment: spotted films, Alexa647-labelled pure antigen, fluorescence; reference ScFv alone
[2] = target: antigen of scFv1 (Example 6); experiment: microarray of spotted films, 10 nM biotinylated antigen, Alexa-647-labeled streptavidin, spot intensity; reference scFv1 control

fold more antigen bound compared to ScFv alone [1]: > 10 times
B1: His6Rep4CTScFv (scFv)
chain: MHHHHHHGQGGYGGLGQGGYGQGAGSSAAAAAAAAAAAAGGQGGQGQGGYGQGSGGSAAAAAAAAAAAAAAAGRGQGGYGQGSGGNAAAAAAAAAAAAAAAGQGGQGGYGRQSQGAGSAAAAAAAAAAAAAAGSGQGGYGGQGQGGYGQSSASASAAASAASTVANSVSRLSSPSAVSRVSSAVSSLVSNGQVNMAALPNIISNISSSVSASAPGASGCEVIVQALLEVITALVQIVSSSSVGYINPSAVNQITNVVANAMAQVMGGNSEVQLLESGGGLVQPGGSLRLSCAASGFTFSSYEMNWVRQAPGKGLEWVSGISGSGGFTYYADSVKGRFTISRDNSKNTLYLQMNSLRAEDTAMYYCAREGYQDAFDIWGQGTLVTVSSGGGGSGGGGSGGGGSQSVLTQPPSASGTPGQRVTISCTGSSSNIGAGYDVHWYQQLPGTAPKLLIYSNNQRPSGVPDRFSGSKSGTSASLAISGLRSEDEADYYCAAWDDSLSGPPCVFGGGTKLTVLGEQKLISEEDLSGSAAA

fold more antigen bound compared to ScFv alone [1]: 10 times
B2: His6ScFvRep4CT (scFv)
chain: MGSSGHHHHHHMEVQLLESGGGLVQPGGSLRLSCAASGFTFSSYEMNWVRQAPGKGLEWVSGISGSGGFTYYADSVKGRFTISRDNSKNTLYLQMNSLRAEDTAMYYCAREGYQDAFDIWGQGTLVTVSSGGGGSGGGGSGGGGSQSVLTQPPSASGTPGQRVTISCTGSSSNIGAGYDVHWYQQLPGTAPKLLIYSNNQRPSGVPDRFSGSKSGTSASLAISGLRSEDEADYYCAAWDDSLSGPPCVFGGGTKLTVLGEQKLISEEDLSGSAAAGNSGQGGYGGLGQGGYGQGAGSSAAAAAAAAAAAAGGQGGQGQGGYGQGSGGSAAAAAAAAAAAAAAAGRGQGGYGQGSGGNAAAAAAAAAAAAAAAGQGGQGGYGRQSQGAGSAAAAAAAAAAAAAAGSGQGGYGGQGQGGYGQSSASASAAASAASTVANSVSRLSSPSAVSRVSSAVSSLVSNGQVNMAALPNIISNISSSVSASAPGASGCEVIVQALLEVITALVQIVSSSSVGYINPSAVNQITNVVANAMAQVMG

fold increase of antigen recognition compared to the scFv1 control alone [2]: 25 times
B3: His6-scFv1-NTCT (scFv)
chain: MGSSGHHHHHHMEVQLLESGGGLVQPGGSLRLSCAASGFTFSSYEMNWVRQAPGKGLEWVSGISGSGGFTYYADSVKGRFTISRDNSKNTLYLQMNSLRAEDTAMYYCAREGYQDAFDIWGQGTLVTVSSGGGGSGGGGSGGGGSQSVLTQPPSASGTPGQRVTISCTGSSSNIGAGYDVHWYQQLPGTAPKLLIYSNNQRPSGVPDRFSGSKSGTSASLAISGLRSEDEADYYCAAWDDSLSGPPWVFGGGTKLTVLGEQKLISEEDLSGSAAAGNSSHTTPWTNPGLAENFMNSFMQGLSSMPGFTASQLDDMSTIAQSMVQSIQSLAAQGRTSPNKLQALNMAFASSMAEIAASEEGGGSLSTKTSSIASAMSNAFLQTTGVVNQPFINEITQLVSMFAQAGMNDVSAGNSGIQGYGQSSASASAAASAASTVANSVSRLSSPSAVSRVSSAVSSLVSNGQVNMAALPNIISNISSSVSASAPGASGCEVIVQALLEVITALVQIVSSSSVGYINPSAVNQITNVVANAMAQVMG
